For this experiment, the target named is His-Nudel^1–201 (UniProt Q9GZM8). Put plainly: ITC. Background: ITC needs no label: the signal is the heat of the interaction.

The source of these data is publication PMC3826990.

As usually defined, the Kd is the free concentration of one partner at which half of the binding sites on the other are occupied at equilibrium, for simple one-to-one binding.

UniProt Q9GZM8, sequence (Q9GZM8 1-201): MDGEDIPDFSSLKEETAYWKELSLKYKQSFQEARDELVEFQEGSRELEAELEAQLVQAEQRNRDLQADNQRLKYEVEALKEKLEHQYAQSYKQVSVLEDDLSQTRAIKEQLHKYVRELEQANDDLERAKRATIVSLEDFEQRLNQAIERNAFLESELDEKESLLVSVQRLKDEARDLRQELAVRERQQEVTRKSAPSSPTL

In turn, “His-tagged Lis1 (from UniProt P43034 1-410) (natural protein)” returned a Kd of 0.41 µM. This counts as sub-micromolar. His-DIC (natural protein) gave a Kd of 7.8 µM.
